T1: PTK7 (His tag) (UniProt Q13308 31-704)
T1 sequence: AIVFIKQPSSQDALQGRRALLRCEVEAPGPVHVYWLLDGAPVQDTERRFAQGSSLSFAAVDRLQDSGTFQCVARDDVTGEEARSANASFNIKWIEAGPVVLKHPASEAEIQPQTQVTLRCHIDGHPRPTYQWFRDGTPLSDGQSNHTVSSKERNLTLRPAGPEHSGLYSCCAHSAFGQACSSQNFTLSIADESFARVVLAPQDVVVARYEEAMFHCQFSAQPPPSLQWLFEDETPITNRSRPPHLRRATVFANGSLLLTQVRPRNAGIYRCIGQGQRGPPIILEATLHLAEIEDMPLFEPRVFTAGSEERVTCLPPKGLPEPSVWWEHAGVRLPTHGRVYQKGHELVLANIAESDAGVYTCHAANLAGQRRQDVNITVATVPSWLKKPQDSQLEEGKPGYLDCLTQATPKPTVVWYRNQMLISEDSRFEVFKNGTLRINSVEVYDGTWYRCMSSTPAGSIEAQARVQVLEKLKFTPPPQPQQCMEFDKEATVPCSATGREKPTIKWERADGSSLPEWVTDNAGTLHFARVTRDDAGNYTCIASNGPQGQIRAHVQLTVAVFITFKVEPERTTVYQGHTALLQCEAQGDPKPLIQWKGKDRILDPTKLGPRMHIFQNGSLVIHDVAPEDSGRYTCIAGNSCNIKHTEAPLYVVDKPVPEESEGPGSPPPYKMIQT


These binders were tested against T1, PTK7 (His tag) (assay: SPR).

Binding result, no binding:
ATCTAACTTCTGAGCCGCCGGGAAAATACTGTACGGTTAGA (structured_DNA) [G9T·C13A], ATCTAACTGTTACGCCGCCGGGAAAATACTGTACGGTTAGA (structured_DNA) [C10T·G12A], ATCTAACTGATTCGCCGCCGGGAAAATACTGTACGGTTAGA (structured_DNA) [C10A·G12T], ATCTAACTCCTGGGCCGCCGGGAAAATACTGTACGGTTAGA (structured_DNA) [G9C·C13G], ATCTAACTGGTCCGCCGCCGGGAAAATACTGTACGGTTAGA (structured_DNA) [C10G·G12C], ATCTAACTACTGTGCCGCCGGGAAAATACTGTACGGTTAGA (structured_DNA) [G9A·C13T]

From PMC11260122
